According to US20150344570A1 (published 2015):

Target: T1, FcγRIIIa extracellular domain with C-terminal His tag (human, UniProt P08637 17-208)
T1 construct: extracellular domain; also called FcgRIIIa; 3a; not shown: His tag attached to the C terminus
Experiment: SPR Biacore, captured antibody, FcγR analyte, relative binding
Procedure: Analysis of interaction between objective antibody and the FcγR was carried out using Biacore T100 (GE Healthcare). HBS-EP+ (GE Healthcare) was used as the running buffer, and the measurement temperature was set to 25° C. Chips produced by immobilizing the antigen peptide by the amine coupling method to a Series S Sencor Chip CM5 (GE Healthcare), or alternatively, chips produced by allowing preliminarily biotinylated antigen peptides to interact with and immobilize onto a Series S Sensor Chip SA (certified) (GE Healthcare) were used. Antibodies of interest were captured onto an antigen peptide-immobilized chip, and allowed to interact to each FcγR diluted with running buffer. To regenerate and repeatedly use the chip, the antibodies captured on the chip were washed off by reacting 10 mM glycine-HCl, pH 1.5.

T1 sequence (P08637 17-208): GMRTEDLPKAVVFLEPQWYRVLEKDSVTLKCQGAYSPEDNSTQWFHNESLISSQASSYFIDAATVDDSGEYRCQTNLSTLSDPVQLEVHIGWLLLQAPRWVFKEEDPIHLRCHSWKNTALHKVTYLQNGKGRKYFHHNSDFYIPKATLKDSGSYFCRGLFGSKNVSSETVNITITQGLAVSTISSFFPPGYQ

B1: GpH7-A5/GpH7-B3 variant A330_08L/GpL16-k0 (antibody, human IgG1, kappa)
heavy 1: not shown
heavy 2: not shown
light: DIVMTQSPLSLPVTPGEPASISCQASESLVHSNRNTYLHWYLQKPGQSPQLLIYKVSNRFSGVPDRFSGSGSGTDFTLKISRVEAEDVGVYYCSQNTHVPPTFGQGTKVEIERTVAAPSVFIFPPSDEQLKSGTASVVCLLNNFYPREAKVQWKVDNALQSGNSQESVTEQDSKDSTYSLSSTLTLSKADYEKHKVYACEVTHQGLSSPVTKSFNRGEC
notes: also called He Ab A330_08L
- He/Con_3a: 124 % of HeCon Ab GpH7-A5/GpH7-B3/GpL16-k0 (=100)

B2: GpH7-A5/GpH7-B3 variant I332_14T/GpL16-k0 (antibody, human IgG1, kappa)
heavy 1: not shown
heavy 2: not shown
light: DIVMTQSPLSLPVTPGEPASISCQASESLVHSNRNTYLHWYLQKPGQSPQLLIYKVSNRFSGVPDRFSGSGSGTDFTLKISRVEAEDVGVYYCSQNTHVPPTFGQGTKVEIERTVAAPSVFIFPPSDEQLKSGTASVVCLLNNFYPREAKVQWKVDNALQSGNSQESVTEQDSKDSTYSLSSTLTLSKADYEKHKVYACEVTHQGLSSPVTKSFNRGEC
notes: also called He Ab I332_14T
- He/Con_3a: 120 % of HeCon Ab GpH7-A5/GpH7-B3/GpL16-k0 (=100)

B3: GpH7-A5/GpH7-B3 variant I336_03V/GpL16-k0 (antibody, human IgG1, kappa)
heavy 1: not shown
heavy 2: not shown
light: DIVMTQSPLSLPVTPGEPASISCQASESLVHSNRNTYLHWYLQKPGQSPQLLIYKVSNRFSGVPDRFSGSGSGTDFTLKISRVEAEDVGVYYCSQNTHVPPTFGQGTKVEIERTVAAPSVFIFPPSDEQLKSGTASVVCLLNNFYPREAKVQWKVDNALQSGNSQESVTEQDSKDSTYSLSSTLTLSKADYEKHKVYACEVTHQGLSSPVTKSFNRGEC
notes: also called He Ab I336_03V
- He/Con_3a: 112 % of HeCon Ab GpH7-A5/GpH7-B3/GpL16-k0 (=100)

B4: GpH7-A5/GpH7-B3 variant I332_13S/GpL16-k0 (antibody, human IgG1, kappa)
heavy 1: not shown
heavy 2: not shown
light: DIVMTQSPLSLPVTPGEPASISCQASESLVHSNRNTYLHWYLQKPGQSPQLLIYKVSNRFSGVPDRFSGSGSGTDFTLKISRVEAEDVGVYYCSQNTHVPPTFGQGTKVEIERTVAAPSVFIFPPSDEQLKSGTASVVCLLNNFYPREAKVQWKVDNALQSGNSQESVTEQDSKDSTYSLSSTLTLSKADYEKHKVYACEVTHQGLSSPVTKSFNRGEC
notes: also called He Ab I332_13S
- He/Con_3a: 104 % of HeCon Ab GpH7-A5/GpH7-B3/GpL16-k0 (=100)

B5: GpH7-A5/GpH7-B3 variant I336_10E/GpL16-k0 (antibody, human IgG1, kappa)
heavy 1: not shown
heavy 2: not shown
light: DIVMTQSPLSLPVTPGEPASISCQASESLVHSNRNTYLHWYLQKPGQSPQLLIYKVSNRFSGVPDRFSGSGSGTDFTLKISRVEAEDVGVYYCSQNTHVPPTFGQGTKVEIERTVAAPSVFIFPPSDEQLKSGTASVVCLLNNFYPREAKVQWKVDNALQSGNSQESVTEQDSKDSTYSLSSTLTLSKADYEKHKVYACEVTHQGLSSPVTKSFNRGEC
notes: also called He Ab I336_10E
- He/Con_3a: 119 % of HeCon Ab GpH7-A5/GpH7-B3/GpL16-k0 (=100)

B6: GpH7-A5/GpH7-B3 variant I332_01G/GpL16-k0 (antibody, human IgG1, kappa)
heavy 1: not shown
heavy 2: not shown
light: DIVMTQSPLSLPVTPGEPASISCQASESLVHSNRNTYLHWYLQKPGQSPQLLIYKVSNRFSGVPDRFSGSGSGTDFTLKISRVEAEDVGVYYCSQNTHVPPTFGQGTKVEIERTVAAPSVFIFPPSDEQLKSGTASVVCLLNNFYPREAKVQWKVDNALQSGNSQESVTEQDSKDSTYSLSSTLTLSKADYEKHKVYACEVTHQGLSSPVTKSFNRGEC
notes: also called He Ab I332_01G
- He/Con_3a: 111 % of HeCon Ab GpH7-A5/GpH7-B3/GpL16-k0 (=100)

B7: GpH7-A5/GpH7-B3 variant I332_09D/GpL16-k0 (antibody, human IgG1, kappa)
heavy 1: not shown
heavy 2: not shown
light: DIVMTQSPLSLPVTPGEPASISCQASESLVHSNRNTYLHWYLQKPGQSPQLLIYKVSNRFSGVPDRFSGSGSGTDFTLKISRVEAEDVGVYYCSQNTHVPPTFGQGTKVEIERTVAAPSVFIFPPSDEQLKSGTASVVCLLNNFYPREAKVQWKVDNALQSGNSQESVTEQDSKDSTYSLSSTLTLSKADYEKHKVYACEVTHQGLSSPVTKSFNRGEC
notes: also called He Ab I332_09D
- He/Con_3a: 207 % of HeCon Ab GpH7-A5/GpH7-B3/GpL16-k0 (=100)

B8: GpH7-A5/GpH7-B3 variant A330_20W/GpL16-k0 (antibody, human IgG1, kappa)
heavy 1: not shown
heavy 2: not shown
light: DIVMTQSPLSLPVTPGEPASISCQASESLVHSNRNTYLHWYLQKPGQSPQLLIYKVSNRFSGVPDRFSGSGSGTDFTLKISRVEAEDVGVYYCSQNTHVPPTFGQGTKVEIERTVAAPSVFIFPPSDEQLKSGTASVVCLLNNFYPREAKVQWKVDNALQSGNSQESVTEQDSKDSTYSLSSTLTLSKADYEKHKVYACEVTHQGLSSPVTKSFNRGEC
notes: also called He Ab A330_20W
- He/Con_3a: 104 % of HeCon Ab GpH7-A5/GpH7-B3/GpL16-k0 (=100)

B9: GpH7-A5/GpH7-B3 variant I336_02A/GpL16-k0 (antibody, human IgG1, kappa)
heavy 1: not shown
heavy 2: not shown
light: DIVMTQSPLSLPVTPGEPASISCQASESLVHSNRNTYLHWYLQKPGQSPQLLIYKVSNRFSGVPDRFSGSGSGTDFTLKISRVEAEDVGVYYCSQNTHVPPTFGQGTKVEIERTVAAPSVFIFPPSDEQLKSGTASVVCLLNNFYPREAKVQWKVDNALQSGNSQESVTEQDSKDSTYSLSSTLTLSKADYEKHKVYACEVTHQGLSSPVTKSFNRGEC
notes: also called He Ab I336_02A
- He/Con_3a: 111 % of HeCon Ab GpH7-A5/GpH7-B3/GpL16-k0 (=100)

B10: GpH7-A5/GpH7-B3 variant I332_15Y/GpL16-k0 (antibody, human IgG1, kappa)
heavy 1: not shown
heavy 2: not shown
light: DIVMTQSPLSLPVTPGEPASISCQASESLVHSNRNTYLHWYLQKPGQSPQLLIYKVSNRFSGVPDRFSGSGSGTDFTLKISRVEAEDVGVYYCSQNTHVPPTFGQGTKVEIERTVAAPSVFIFPPSDEQLKSGTASVVCLLNNFYPREAKVQWKVDNALQSGNSQESVTEQDSKDSTYSLSSTLTLSKADYEKHKVYACEVTHQGLSSPVTKSFNRGEC
notes: also called He Ab I332_15Y
- He/Con_3a: 101 % of HeCon Ab GpH7-A5/GpH7-B3/GpL16-k0 (=100)

B11: GpH7-A5/GpH7-B3 variant I332_02A/GpL16-k0 (antibody, human IgG1, kappa)
heavy 1: not shown
heavy 2: not shown
light: DIVMTQSPLSLPVTPGEPASISCQASESLVHSNRNTYLHWYLQKPGQSPQLLIYKVSNRFSGVPDRFSGSGSGTDFTLKISRVEAEDVGVYYCSQNTHVPPTFGQGTKVEIERTVAAPSVFIFPPSDEQLKSGTASVVCLLNNFYPREAKVQWKVDNALQSGNSQESVTEQDSKDSTYSLSSTLTLSKADYEKHKVYACEVTHQGLSSPVTKSFNRGEC
notes: also called He Ab I332_02A
- He/Con_3a: 112 % of HeCon Ab GpH7-A5/GpH7-B3/GpL16-k0 (=100)
